Molecular target: T1, insulin receptor (IR) of mouse primary hepatocytes (mouse, UniProt P15208 28-748; P15208 753-1372)
T1 construct: whole, on cells; Endogenous receptor on intact primary hepatocytes from wild type or PKCε-/- mice; in cell lysates for the co-precipitation
Experiment: co-precipitation from hepatocytes of wild type mice; data not shown

T1 sequence (P15208 28-748 limits assumed, chain 1 of 2): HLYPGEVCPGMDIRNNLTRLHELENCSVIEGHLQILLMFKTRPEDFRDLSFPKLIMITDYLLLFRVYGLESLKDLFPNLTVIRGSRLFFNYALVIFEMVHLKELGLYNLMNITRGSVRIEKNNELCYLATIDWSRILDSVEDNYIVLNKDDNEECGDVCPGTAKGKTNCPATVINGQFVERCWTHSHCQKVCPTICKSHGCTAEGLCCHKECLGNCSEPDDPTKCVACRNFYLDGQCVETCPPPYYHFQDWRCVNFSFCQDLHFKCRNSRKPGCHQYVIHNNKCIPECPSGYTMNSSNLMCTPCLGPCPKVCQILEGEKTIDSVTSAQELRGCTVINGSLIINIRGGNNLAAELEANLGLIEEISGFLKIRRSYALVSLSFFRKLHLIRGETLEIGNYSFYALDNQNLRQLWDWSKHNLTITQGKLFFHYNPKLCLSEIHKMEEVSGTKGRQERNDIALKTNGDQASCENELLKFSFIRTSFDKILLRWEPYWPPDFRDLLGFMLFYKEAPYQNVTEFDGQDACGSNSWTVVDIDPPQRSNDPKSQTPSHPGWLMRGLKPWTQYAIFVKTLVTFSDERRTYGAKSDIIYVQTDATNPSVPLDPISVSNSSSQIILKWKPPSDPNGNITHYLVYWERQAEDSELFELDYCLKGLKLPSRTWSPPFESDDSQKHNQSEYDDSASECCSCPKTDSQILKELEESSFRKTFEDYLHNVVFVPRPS
T1 sequence (P15208 753-1372 limits assumed, chain 2 of 2): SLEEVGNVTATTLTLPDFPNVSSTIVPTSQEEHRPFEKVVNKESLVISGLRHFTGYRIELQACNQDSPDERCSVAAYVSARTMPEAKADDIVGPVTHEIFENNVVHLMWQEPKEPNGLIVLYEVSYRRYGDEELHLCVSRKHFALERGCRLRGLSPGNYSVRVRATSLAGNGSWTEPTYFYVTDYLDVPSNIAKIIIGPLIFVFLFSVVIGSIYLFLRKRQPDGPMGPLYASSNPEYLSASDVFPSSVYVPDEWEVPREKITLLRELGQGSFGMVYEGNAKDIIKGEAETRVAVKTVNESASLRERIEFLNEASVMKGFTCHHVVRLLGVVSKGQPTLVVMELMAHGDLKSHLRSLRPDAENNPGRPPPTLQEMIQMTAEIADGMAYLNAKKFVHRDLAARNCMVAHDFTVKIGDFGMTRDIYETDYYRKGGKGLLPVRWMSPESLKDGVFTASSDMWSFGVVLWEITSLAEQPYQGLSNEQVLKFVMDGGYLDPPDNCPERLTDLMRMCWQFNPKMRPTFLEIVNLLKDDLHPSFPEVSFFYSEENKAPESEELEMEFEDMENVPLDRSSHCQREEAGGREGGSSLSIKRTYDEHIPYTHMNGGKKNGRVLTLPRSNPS

B1: protein kinase C epsilon (PKCε), murine (enzyme)
chain: MVVFNGLLKIKICEAVSLKPTAWSLRHAVGPRPQTFLLDPYIALNVDDSRIGQTATKQKTNSPAWHDEFVTDVCNGRKIELAVFHDAPIGYDDFVANCTIQFEELLQNGSRHFEDWIDLEPEGKVYVIIDLSGSSGEAPKDNEERVFRERMRPRKRQGAVRRRVHQVNGHKFMATYLRQPTYCSHCRDFIWGVIGKQGYQCQVCTCVVHKRCHELIITKCAGLKKQETPDEVGSQRFSVNMPHKFGIHNYKVPTFCDHCGSLLWGLLRQGLQCKVCKMNVHRRCETNVAPNCGVDARGIAKVLADLGVTPDKITNSGQRRKKLAAGAESPQPASGNSPSEDDRSKSAPTSPCDQELKELENNIRKALSFDNRGEEHRASSATDGQLASPGENGEVRPGQAKRLGLDEFNFIKVLGKGSFGKVMLAELKGKDEVYAVKVLKKDVILQDDDVDCTMTEKRILALARKHPYLTQLYCCFQTKDRLFFVMEYVNGGDLMFQIQRSRKFDEPRSRFYAAEVTSALMFLHQHGVIYRDLKLDNILLDAEGHCKLADFGMCKEGIMNGVTTTTFCGTPDYIAPEILQELEYGPSVDWWALGVLMYEMMAGQPPFEADNEDDLFESILHDDVLYPVWLSKEAVSILKAFMTKNPHKRLGCVAAQNGEDAIKQHPFFKEIDWVLLEQKKIKPPFKPRIKTKRDVNNFDQDFTREEPILTLVDEAIIKQINQEEFKGFSYFGEDLMP
notes: Endogenous PKCε in hepatocytes of wild type mice
B1: no binding.

From US20080263689A1 (GARVAN INSTITUTE OF MEDICAL RESEARCH, published 2008)
